Source: publication PMC9555707
Where “and” joins values, the source holds several entries; their conditions need not be identical. Identical values can stand only once.

Target: SmT1v3-R, tagless resistin-trimerized SARS-CoV-2 spike ectodomain, reference strain (SARS-CoV-2 | human) (UniProt P0DTC2)
Assay: SEC-MALS; UPLC-SEC on a 4.6 x 300 mm Acquity BEH450 column in PBS + 0.02% Tween-20, coupled to a miniDAWN MALS detector and Optilab T-rEX refractometer; trimer and hexamer populations by molecular weight

SmT1v3-R, tagless resistin-trimerized SARS-CoV-2 spike ectodomain, reference strain (from UniProt P0DTC2 14-1208; Q9HD89-1 23-108)
percent of the protein as hexamer: 3%
percent of the protein as trimer: 96%
stoichiometry N: 3 and 6
